The supplement of paper PMC9112550, “Optimization of the antimicrobial peptide Bac7 by deep mutational scanning” (BMC Biology, 2022)
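Also: peptides expressed intracellularly from a pBAD plasmid library in pooled LB shake-flask culture, induced with 0.3% L-arabinose, DNA abundance read by NGS, three biological replicates, DESeq2 with apeglm shrinkage.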

Each sequence was assayed on Escherichia coli TOP10 (assay: shrunken log2 fold change of peptide-encoding DNA abundance (4.5 h post-induction vs induction); higher = less antimicrobial activity (less host growth inhibition)). Details: time post-induction: 4.5 h; library: site-saturation at positions 5, 18, 19, 20.
In the case of RRIRNRPPRLPRPRPRPTECPRP, the “shrunken log2 fold change” value is reported as -0.0689. With RRIRIRPPRLPRPRPRPQSNPRP the “shrunken log2 fold change” value was -0.197. In the case of RRIRGRPPRLPRPRPRPQLNPRP, the “shrunken log2 fold change” value is reported as 0.368. RRIRCRPPRLPRPRPRPGPMPRP was tested, and the “shrunken log2 fold change” value was 0.326. With RRIRVRPPRLPRPRPRPTNSPRP the “shrunken log2 fold change” value was -0.436. With RRIRHRPPRLPRPRPRPEKNPRP the “shrunken log2 fold change” value was -0.0893. RRIRNRPPRLPRPRPRPMIMPRP was tested, and the “shrunken log2 fold change” value was -1.96. With RRIRHRPPRLPRPRPRPHGVPRP the “shrunken log2 fold change” value was 0.00355. For RRIRKRPPRLPRPRPRPDALPRP, the “shrunken log2 fold change” value was 0.132. In the case of RRIRDRPPRLPRPRPRPGYHPRP, the “shrunken log2 fold change” value is reported as -0.071. For RRIRARPPRLPRPRPRPNFRPRP, the “shrunken log2 fold change” value was 0.376. In the case of RRIRCRPPRLPRPRPRPTLNPRP, the “shrunken log2 fold change” value is reported as -0.232. RRIRNRPPRLPRPRPRPFEIPRP was tested, and the “shrunken log2 fold change” value was -0.0195. With RRIRCRPPRLPRPRPRPKNAPRP the “shrunken log2 fold change” value was -0.103. RRIRMRPPRLPRPRPRPWSGPRP was tested, and the “shrunken log2 fold change” value was -0.0411. RRIRKRPPRLPRPRPRPEWPPRP was tested, and the “shrunken log2 fold change” value was 0.273. In the case of RRIRMRPPRLPRPRPRPDQQPRP, the “shrunken log2 fold change” value is reported as -0.0225. In the case of RRIRSRPPRLPRPRPRPRTIPRP, the “shrunken log2 fold change” value is reported as -0.141. In the case of RRIRHRPPRLPRPRPRPQEFPRP, the “shrunken log2 fold change” value is reported as -0.00101. RRIRDRPPRLPRPRPRPEFWPRP was tested, and the “shrunken log2 fold change” value was 1.02. For RRIRDRPPRLPRPRPRPELWPRP, the “shrunken log2 fold change” value was 2.17. RRIRVRPPRLPRPRPRPQVSPRP was tested, and the “shrunken log2 fold change” value was 0.0417. With RRIRNRPPRLPRPRPRPCSWPRP the “shrunken log2 fold change” value was -0.117. In the case of RRIRDRPPRLPRPRPRPARMPRP, the “shrunken log2 fold change” value is reported as 0.584. With RRIRCRPPRLPRPRPRPFMQPRP the “shrunken log2 fold change” value was -0.402. With RRIRNRPPRLPRPRPRPHPQPRP the “shrunken log2 fold change” value was -0.106. In the case of RRIRQRPPRLPRPRPRPILMPRP, the “shrunken log2 fold change” value is reported as 0.0271. With RRIRERPPRLPRPRPRPDFEPRP the “shrunken log2 fold change” value was -0.117. With RRIRIRPPRLPRPRPRPEAGPRP the “shrunken log2 fold change” value was -0.17. In the case of RRIRGRPPRLPRPRPRPPICPRP, the “shrunken log2 fold change” value is reported as 0.155. For RRIRRRPPRLPRPRPRPLMWPRP, the “shrunken log2 fold change” value was 0.163. For RRIRFRPPRLPRPRPRPRVMPRP, the “shrunken log2 fold change” value was 0.138. For RRIRMRPPRLPRPRPRPRVWPRP, the “shrunken log2 fold change” value was 2.08. In the case of RRIRYRPPRLPRPRPRPHTAPRP, the “shrunken log2 fold change” value is reported as -0.57. With RRIRFRPPRLPRPRPRPKIPPRP the “shrunken log2 fold change” value was -0.428. With RRIRTRPPRLPRPRPRPNAGPRP the “shrunken log2 fold change” value was 0.0361. For RRIRKRPPRLPRPRPRPFKYPRP, the “shrunken log2 fold change” value was -0.517. RRIRFRPPRLPRPRPRPHIKPRP was tested, and the “shrunken log2 fold change” value was -0.793. RRIRARPPRLPRPRPRPILAPRP was tested, and the “shrunken log2 fold change” value was 0.147. RRIRQRPPRLPRPRPRPSDRPRP was tested, and the “shrunken log2 fold change” value was -0.264. RRIRARPPRLPRPRPRPSGHPRP was tested, and the “shrunken log2 fold change” value was 0.168. For RRIRTRPPRLPRPRPRPKVLPRP, the “shrunken log2 fold change” value was -0.015. With RRIRTRPPRLPRPRPRPDTGPRP the “shrunken log2 fold change” value was -0.0906. For RRIRQRPPRLPRPRPRPCPSPRP, the “shrunken log2 fold change” value was 0.0332. RRIRWRPPRLPRPRPRPHVMPRP was tested, and the “shrunken log2 fold change” value was -0.254. For RRIRRRPPRLPRPRPRPDSPPRP, the “shrunken log2 fold change” value was 0.28. In the case of RRIRWRPPRLPRPRPRPVEPPRP, the “shrunken log2 fold change” value is reported as 0.546. In the case of RRIRIRPPRLPRPRPRPSCHPRP, the “shrunken log2 fold change” value is reported as -0.243. With RRIRLRPPRLPRPRPRPHSQPRP the “shrunken log2 fold change” value was -0.0709. RRIRMRPPRLPRPRPRPPECPRP was tested, and the “shrunken log2 fold change” value was 0.369. In the case of RRIRFRPPRLPRPRPRPWFEPRP, the “shrunken log2 fold change” value is reported as -0.0653. For RRIRCRPPRLPRPRPRPDTAPRP, the “shrunken log2 fold change” value was -0.051. In the case of RRIRVRPPRLPRPRPRPDTVPRP, the “shrunken log2 fold change” value is reported as -0.186. With RRIRTRPPRLPRPRPRPWRYPRP the “shrunken log2 fold change” value was 0.108. In the case of RRIRARPPRLPRPRPRPIPVPRP, the “shrunken log2 fold change” value is reported as 0.161. For RRIRLRPPRLPRPRPRPNNHPRP, the “shrunken log2 fold change” value was -0.761. RRIRPRPPRLPRPRPRPNREPRP was tested, and the “shrunken log2 fold change” value was 0.026. With RRIRWRPPRLPRPRPRPNCCPRP the “shrunken log2 fold change” value was -0.16. With RRIRMRPPRLPRPRPRPLHVPRP the “shrunken log2 fold change” value was -0.21. RRIRDRPPRLPRPRPRPSGPPRP was tested, and the “shrunken log2 fold change” value was -0.0549. RRIRQRPPRLPRPRPRPSRMPRP was tested, and the “shrunken log2 fold change” value was -0.34. In the case of RRIRTRPPRLPRPRPRPFAGPRP, the “shrunken log2 fold change” value is reported as -0.0338. For RRIRMRPPRLPRPRPRPNNKPRP, the “shrunken log2 fold change” value was -0.183. In the case of RRIRSRPPRLPRPRPRPTGIPRP, the “shrunken log2 fold change” value is reported as -0.0906. For RRIRDRPPRLPRPRPRPEHEPRP, the “shrunken log2 fold change” value was 0.017. For RRIRRRPPRLPRPRPRPLYSPRP, the “shrunken log2 fold change” value was -0.0185. For RRIRTRPPRLPRPRPRPIAIPRP, the “shrunken log2 fold change” value was -0.0261. In the case of RRIRCRPPRLPRPRPRPQRRPRP, the “shrunken log2 fold change” value is reported as -0.023. For RRIRYRPPRLPRPRPRPHNHPRP, the “shrunken log2 fold change” value was -1.01. With RRIRPRPPRLPRPRPRPVMCPRP the “shrunken log2 fold change” value was 0.218. In the case of RRIRFRPPRLPRPRPRPLIEPRP, the “shrunken log2 fold change” value is reported as -0.132. For RRIRGRPPRLPRPRPRPVLMPRP, the “shrunken log2 fold change” value was 0.316. For RRIRNRPPRLPRPRPRPHKYPRP, the “shrunken log2 fold change” value was -1.52. With RRIRSRPPRLPRPRPRPFFMPRP the “shrunken log2 fold change” value was -0.288. With RRIRWRPPRLPRPRPRPCFHPRP the “shrunken log2 fold change” value was -0.247.
